Measurements taken from the RNAGym collection of RNA variant scans (doi:10.1093/molbev/msab373).

B1: Azoarcus group I ribozyme (parent)
chain: GUGCCUUGCGCCGGGAAACCACGCAAGGGAUGGUGUCAAAUUCGGCGAAACCUAAGCGCCCGCCCGGGCGUAUGGCAACGCCGAGCCAAGCUUCGGCGCCUGCGCCGAUGAAGGUGUAGAGACUAGACGGCACCCACCUAAGGCAAACGCUAUGGUGAAGGCAUAGUCCAGGGAGUGGCGAAAGUCACACAAACCGG

Variants of: B1
Experiment: reverse-splicing fitness (ratio to wild type); higher = more active; in vitro selection; Mg2+ level not given
Method in brief: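 An in vitro group I ribozyme library with randomized positions was T7-transcribed and gel-purified. In triplicate, 10 pmol RNA in EPPS pH 7.5 was reacted with 50 pmoles of a 30-nt RNA substrate for 1 h at 37 °C across several added MgCl2 levels (1–48 mM), then stopped with EDTA. Products were reverse transcribed from a substrate-complementary primer, PCR-amplified and sequenced (HiSeq 4000). Fitness is a variant's read proportion after selection over that before, normalised to wild type.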

| Variant | reverse-splicing fitness |
| --- | --- |
| C82U A111G A120G A145U C150A C169U | 0.00646 |
| C82U A111G A120G A145U C150A C169G | 0.00754 |
| C82U A111G A120G A145U C150A C169A | 0.00822 |
| C82U A111G A120G | 0.0173 |
| C82U A111G A120U | 0.0431 |
| C82U A111G A120G A145G C150U U176G | 0.00622 |
| C82U A111G A120G A145G C150U U176C | 0.0166 |
| C82U A111G A120G A145G C150U U176A | 0.00859 |
| C82U A111G A120C C169A U176G | 0.00425 |
| C82U A111G A120G A145C | 0.0135 |
| C82U A111G A120G A145U | 0.0174 |
| C82U A111G A120G A145G | 0.0164 |
| C82U A111G A120G C150G C169G U176A | 0.00604 |
| C82U A111G A120G C150G C169G U176G | 0.00428 |
| C82U A111G A120G C150G C169G U176C | 0.00458 |
| C82U A111G A120G A145G C169A U176G | 0.00377 |
| C82U A111G A120G A145G C169A U176A | 0.0215 |
| C82U A111G A120G A145G C169A U176C | 0.0277 |
| C82U A111G A120U A145C C150G C169A | 0.00238 |
| C82U A111G A120U A145C C150G C169U | 0.00264 |
| C82U A111G A120U A145C C150G C169G | 0.00252 |

| Variant | reverse-splicing fitness |
| --- | --- |
| C82U A111G A120G A145C C150G | 0.00632 |
| C82U A111G A120G A145C C150A | 0.00658 |
| C82U A111G A120G A145C C150U | 0.00813 |
| C82U A111G A120G A145G C150A U176G | 0.00593 |
| C82U A111G A120G A145G C150A U176C | 0.0196 |
| C82U A111G A120G A145G C150A U176A | 0.0088 |
| C82U A111G A120G A145C C150G U176A | 0.00404 |
| C82U A111G A120G A145C C150G U176G | 0.00261 |
| C82U A111G A120G A145C C150G U176C | 0.00614 |
| C82U A111G A120G A145U C150U C169G U176G | 0.00409 |
| C82U A111G A120G A145U C150U C169G U176A | 0.0116 |
| C82U A111G A120G A145U C150U C169G U176C | 0.0132 |
| C82U A111G A120G A145C C169A U176A | 0.011 |
| C82U A111G A120G A145C C169A U176C | 0.00572 |
| C82U A111G A120G A145C C169A U176G | 0.00366 |
| C82U A111G A120U A145C C169U | 0.00379 |
| C82U A111G A120U A145C C169G | 0.00247 |
| C82U A111G A120U A145C C169A | 0.00224 |
| C82U A111G A120U A145C C169U U176A | 0.00232 |
| C82U A111G A120U A145C C169U U176G | 0.00126 |
| C82U A111G A120U A145C C169U U176C | 0.00209 |

| Variant | reverse-splicing fitness |
| --- | --- |
| C82U A111G A120G U176A | 0.013 |
| C82U A111G A120G U176C | 0.0144 |
| C82U A111G A120G U176G | 0.00466 |
| C82U A111G A120U A145C C169A U176C | 0.00194 |
| C82U A111G A120U A145C C169A U176G | 0.00179 |
| C82U A111G A120U A145C C169A U176A | 0.00176 |
| C82U A111G A120G A145C C150A C169U U176C | 0.00907 |
| C82U A111G A120G A145C C150A C169U U176A | 0.0192 |
| C82U A111G A120G A145C C150A C169U U176G | 0.00373 |
| C82U A111G A120G C150G C169A | 0.00895 |
| C82U A111G A120G C150G C169G | 0.00749 |
| C82U A111G A120G C150G C169U | 0.00822 |
| C82U A111G A120G A145U C150A U176C | 0.013 |
| C82U A111G A120G A145U C150A U176A | 0.00974 |
| C82U A111G A120G A145U C150A U176G | 0.00406 |
| C82U A111G A120G A145C C150G C169U U176G | 0.00462 |
| C82U A111G A120G A145C C150G C169U U176A | 0.0136 |
| C82U A111G A120G A145C C150G C169U U176C | 0.0102 |
| C82U A111G A120G A145G C169A | 0.0117 |
| C82U A111G A120G A145G C169U | 0.011 |
| C82U A111G A120G A145G C169G | 0.0129 |

| Variant | reverse-splicing fitness |
| --- | --- |
| C82U A111G A120G C150G U176A | 0.00527 |
| C82U A111G A120G C150G U176G | 0.0029 |
| C82U A111G A120G C150G U176C | 0.00816 |
| C82U A111G A120U A145C C150A U176C | 0.00275 |
| C82U A111G A120U A145C C150A U176G | 0.002 |
| C82U A111G A120U A145C C150A U176A | 0.00269 |
| C82U A111G A120G A145U C150A C169A U176G | 0.00458 |
| C82U A111G A120G A145U C150A C169A U176A | 0.013 |
| C82U A111G A120G A145U C150A C169A U176C | 0.00962 |
| C82U A111G A120G A145C U176A | 0.0105 |
| C82U A111G A120G A145C U176C | 0.00983 |
| C82U A111G A120G A145C U176G | 0.00368 |
| C82U A111G A120U A145C C150U C169U U176G | 0.00188 |
| C82U A111G A120U A145C C150U C169U U176A | 0.00264 |
| C82U A111G A120U A145C C150U C169U U176C | 0.00222 |
| C82U A111G A120G A145G C150G C169U U176G | 0.00643 |
| C82U A111G A120G A145G C150G C169U U176C | 0.0105 |
| C82U A111G A120G A145G C150G C169U U176A | 0.0114 |
| C82U A111G A120C C169U U176A | 0.0149 |
| C82U A111G A120C C169U U176C | 0.014 |
